Consider five proteins from paper PMC3234919 (The Journal of Biological Chemistry, 2011).

The data set “SEC” deals with the molecule itself. Put plainly: SEC. For orientation: In gel filtration, larger molecules generally elute earlier.
Data set [1] deals with the molecule itself. Put plainly: crystal structure.
Data set [2] concerns the molecule itself. Put plainly: crystal structure. The source holds these as a separate data set.

Positions count from the first letter of the chain named. In names and notes the source's numbering stands.

B1: PrxIII (enzyme, UniProt P30048 62-256, looked up)
chain: APAVTQHAPYFKGTAVVNGEFKDLSLDDFKGKYLVLFFYPLDFTFVCPTEIVAFSDKANEFHDVNCEVVAVSVDSHFSHLAWINTPRKNGGLGHMNIALLSDLTKQISRDYGVLLEGSGLALRGLFIIDPNGVIKHLSVNDLPVGRSVEETLRLVKAFQYVETHGEVCPANWTPDSPTIKPSPAASKEYFQKVNQ
Consider B1, for which the stoichiometry N (in general, the number of molecules, sites or subunits per partner or assembly) in the data set “SEC” worked out at 2.

B2: human peroxiredoxin IV C51A mutant (residues 37-271 of the preprotein) (enzyme, UniProt Q13162 37-271, looked up)
chain: GWETEERPRTREEEAHFYAGGQVYPGEASRVSVADHSLHLSKAKISKPAPYWEGTAVIDGEFKELKLTDYRGKYLVFFFYPLDFTFVCPTEIIAFGDRLEEFRSINTEVVACSVDSQFTHLAWINTPRRQGGLGPIRIPLLSDLTHQISKDYGVYLEDSGHTLRGLFIIDDKGILRQITLNDLPVGRSVDETLRLVQAFQYTDKHGEVCPAGWKPGSETIIPDPAGKLKYFDKLN
With B2, the “stoichiometry N” value in “crystal structure [1]” stood at 10.

B3: human peroxiredoxin IV, wild type, full-length mature protein (residues 37-271 of the preprotein) (enzyme, UniProt Q13162 37-271, looked up)
chain: B2 chain with A15C
As for B3, the “stoichiometry N” value in “SEC” came to 10.

B4: human peroxiredoxin IV C245A resolving cysteine mutant, reduced (enzyme, UniProt Q13162 37-271, looked up)
chain: B2 chain with A15C, C209A
Consider B4, for which the “stoichiometry N” value in the data set “crystal structure [1]” came to 10.

B5: human peroxiredoxin IV C245A resolving cysteine mutant, sulfenylated at the peroxidatic cysteine (enzyme, UniProt Q13162 37-271, looked up)
chain: B2 chain with A15C, C209A
modifications: cysteine sulfenic acid at Cys-124 (peroxidatic cysteine)
With B5, the “stoichiometry N” value in the data set “crystal structure [2]” was determined as 10.
